Laboratory results as given in US20040082080A1, “Method of measuring molecular interactions” (priority 2002, published 2004).

Molecular target: T1, low affinity nerve growth factor receptor, gp75 (Homo sapiens, UniProt P08138)
T1 construct: were expressed endogenously in A875 cells; endogenous in cells; host or cells: A875 cells
Assay: FCS autocorrelation on A875 cells, gp75 receptor stoichiometry
Format: cell-based
Conditions: 180 nM NGF for 5 minutes
Excerpt: Macromolecular stoichiometry, i.e., the quantitative proportions with which two macromolecules interact, of a target can be determined from autocorrelation data. Starting with Equation 4, macromolecular stoichiometry can be calculated if it is assumed that intersystem crossing and particle diffusion are independent sources of fluctuation. The first occurs in the microsecond (μs) time domain and results from intersystem crossing of fluorophores between the singlet and triplet states. The second occurs in the millisecond (ms) time domain, and results from the diffusion of particles into and out of the confocal volume. […]
where F1N′P defines the total number of fast diffusing particles, i.e., uncomplexed fluorescently tagged probes, and F2N′P defines the total number of slow diffusing complexes formed. […] S is obtained with Equation 8 for each target concentration using the parameter values obtained by fitting to Equation 6 and the calibration factor determined with Equation 7
The samples were analyzed using a fluorescence correlation spectroscopy instrument configured to distinct fluorescence emission at different wavelengths and a data processing program capable of autocorrelation, crosscorrelation, Fourier transform and Moment analyses. […]

T1 sequence (P08138 29-427): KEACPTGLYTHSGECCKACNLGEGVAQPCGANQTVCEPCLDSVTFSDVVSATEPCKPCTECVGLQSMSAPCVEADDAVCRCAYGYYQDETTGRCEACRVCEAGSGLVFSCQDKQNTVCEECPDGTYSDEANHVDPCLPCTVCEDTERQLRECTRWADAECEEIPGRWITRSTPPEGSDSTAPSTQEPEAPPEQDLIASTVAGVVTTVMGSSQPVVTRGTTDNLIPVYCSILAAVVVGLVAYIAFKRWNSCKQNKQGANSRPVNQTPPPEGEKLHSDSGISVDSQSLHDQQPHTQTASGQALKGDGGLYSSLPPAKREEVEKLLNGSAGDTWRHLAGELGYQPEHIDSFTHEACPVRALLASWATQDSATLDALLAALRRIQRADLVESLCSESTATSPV

## nerve growth factor [NGF]
  stoichiometry calculation for gp75 (Equation 8): 0.94
